Experiments:
[1] = molecular target: Zika virus NS5 Y25A/K28S/K29A variant, full length, C-terminal 6xHis tag (Zika virus (Suriname human isolate Z1106033))
[2] = molecular target: Zika virus NS5, full length, wild type (Suriname ZIKV human isolate Z1106033), C-terminal 6xHis tag (Zika virus (Suriname human isolate Z1106033)); assay: SEC-MALS; Superdex 200 10/300 GL; 50 mM MES pH 6.0, 500 mM NaCl, 10% glycerol, 5 mM DTT; monomer-dimer
[3] = molecular target: Zika virus NS5, full length, wild type (Suriname ZIKV human isolate Z1106033), C-terminal 6xHis tag (Zika virus (Suriname human isolate Z1106033)); assay: SAXS; 6 mg/ml NS5 (highest concentration); 50 mM MES pH 6.0, 500 mM NaCl, 10% glycerol, 5 mM DTT; 10 °C
[4] = molecular target: Zika virus NS5, full length, wild type (Suriname ZIKV human isolate Z1106033), C-terminal 6xHis tag (Zika virus (Suriname human isolate Z1106033)); assay: SEC-MALS; Superdex 200 10/300 GL; 50 mM HEPES pH 7.0, 500 mM NaCl, 10% glycerol, 5 mM DTT; monomer-dimer
[5] = molecular target: Zika virus NS5, full length, wild type (Suriname ZIKV human isolate Z1106033), C-terminal 6xHis tag (Zika virus (Suriname human isolate Z1106033)); assay: AUC; sedimentation velocity, 20 °C, 43,000 rpm, 0.5 mg/ml protein; 50 mM HEPES pH 7.0, 500 mM NaCl, 5% glycerol, 0.4 mM DTT

Substance | RNA primer extension (polymerase elongation) activity at 900, 180, 18, 9 nM enzyme, variant against wild type NS5 [1] [fold] | percent of the sample mass in the dimer peak [2] [%] | stoichiometry N [2] | stoichiometry N [3] | percent abundance of the dimer peak [4] [%] | stoichiometry N [4] | percent abundance of the dimer species [5] [%] | percent of the sample as oligomer [5] [%] | stoichiometry N [5]
Zika virus NS5 Y25A/K28S/K29A variant, full length, C-terminal 6xHis tag (natural protein) | 3 |  |  |  |  |  |  |  | 
Zika virus NS5, full length, wild type (Suriname ZIKV human isolate Z1106033), C-terminal 6xHis tag (from UniProt A0A024B7W1 2521-3423) (natural protein) |  | 4 | 2 | 2 | 10.4 | 2 | 12 | 5.1 | 2
